Values of other authors as cited in patent US11147890B2, “Stimuli-responsive particles encapsulating a gas and methods of use” (Children's Medical Center Corporation, priority 2017, dated 2021).

Conditions: per gram basis

For hemoglobin, the oxygen carrying capacity is listed as 0.17 mL/g.
